Test results published in publication PMC11775670.

Target: PksD (Bacillus subtilis str. 168) (UniProt O34877)
Details: scale: % relative to the acetyl-PksJ ACP4 domain

Sequence of UniProt O34877 (O34877 whole entry, the tested form may be a part): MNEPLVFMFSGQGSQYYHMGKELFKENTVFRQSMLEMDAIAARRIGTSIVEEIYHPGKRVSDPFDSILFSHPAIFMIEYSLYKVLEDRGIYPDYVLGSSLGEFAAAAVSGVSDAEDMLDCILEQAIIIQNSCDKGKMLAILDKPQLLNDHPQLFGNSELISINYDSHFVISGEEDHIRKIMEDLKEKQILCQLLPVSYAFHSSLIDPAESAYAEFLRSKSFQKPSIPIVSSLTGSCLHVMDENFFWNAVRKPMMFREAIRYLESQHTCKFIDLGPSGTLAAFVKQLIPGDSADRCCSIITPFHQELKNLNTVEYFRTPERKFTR

acetyl group hydrolysis by PksD relative to the acetyl-PksJ ACP4 domain, intact protein-MS | Substance
12 | acetyl-loaded BlmVIII ACP7 domain (domain or fragment)
41 | acetyl-loaded GbnD5 ACP12 domain (domain or fragment)
7 | acetyl-loaded IcoA PCP2 domain (domain or fragment)
